# B1: Phospholipid-transporting ATPase accessory subunit CDC50 (Saccharomyces cerevisiae), P25656 (parent)
# chain: MVSLFKRGKAPPLTKEGPTSKKPPNTAFRQQRLKAWQPILSPQSVLPLLIFVACIFTPIGIGLIVSATKVQDLTIDYSHCDTKASTTAFEDIPKKYIKYHFKSKVENKPQWRLTENENGEQSCELQFEIPNDIKKSIFIYYKITNFYQNHRRYVQSFDTKQILGEPIKKDDLDTSCSPIRSREDKIIYPCGLIANSMFNDTFSQVLSGIDDTEDYNLTNKHISWSIDRHRFKTTKYNASDIVPPPNWMKKYPDGYTDENLPDIHTWEEFQVWMRTAAFPKFYKLTLKNESASLPKGKYQMNIELNYPISLFGGTKSFVLTTNGAIGGRNMSLGVLYLIVAGLCALFGIIFLVKLIFQPRAMGDHTYLNFDDEENEDYEDVHAENTTLREIL
# partner: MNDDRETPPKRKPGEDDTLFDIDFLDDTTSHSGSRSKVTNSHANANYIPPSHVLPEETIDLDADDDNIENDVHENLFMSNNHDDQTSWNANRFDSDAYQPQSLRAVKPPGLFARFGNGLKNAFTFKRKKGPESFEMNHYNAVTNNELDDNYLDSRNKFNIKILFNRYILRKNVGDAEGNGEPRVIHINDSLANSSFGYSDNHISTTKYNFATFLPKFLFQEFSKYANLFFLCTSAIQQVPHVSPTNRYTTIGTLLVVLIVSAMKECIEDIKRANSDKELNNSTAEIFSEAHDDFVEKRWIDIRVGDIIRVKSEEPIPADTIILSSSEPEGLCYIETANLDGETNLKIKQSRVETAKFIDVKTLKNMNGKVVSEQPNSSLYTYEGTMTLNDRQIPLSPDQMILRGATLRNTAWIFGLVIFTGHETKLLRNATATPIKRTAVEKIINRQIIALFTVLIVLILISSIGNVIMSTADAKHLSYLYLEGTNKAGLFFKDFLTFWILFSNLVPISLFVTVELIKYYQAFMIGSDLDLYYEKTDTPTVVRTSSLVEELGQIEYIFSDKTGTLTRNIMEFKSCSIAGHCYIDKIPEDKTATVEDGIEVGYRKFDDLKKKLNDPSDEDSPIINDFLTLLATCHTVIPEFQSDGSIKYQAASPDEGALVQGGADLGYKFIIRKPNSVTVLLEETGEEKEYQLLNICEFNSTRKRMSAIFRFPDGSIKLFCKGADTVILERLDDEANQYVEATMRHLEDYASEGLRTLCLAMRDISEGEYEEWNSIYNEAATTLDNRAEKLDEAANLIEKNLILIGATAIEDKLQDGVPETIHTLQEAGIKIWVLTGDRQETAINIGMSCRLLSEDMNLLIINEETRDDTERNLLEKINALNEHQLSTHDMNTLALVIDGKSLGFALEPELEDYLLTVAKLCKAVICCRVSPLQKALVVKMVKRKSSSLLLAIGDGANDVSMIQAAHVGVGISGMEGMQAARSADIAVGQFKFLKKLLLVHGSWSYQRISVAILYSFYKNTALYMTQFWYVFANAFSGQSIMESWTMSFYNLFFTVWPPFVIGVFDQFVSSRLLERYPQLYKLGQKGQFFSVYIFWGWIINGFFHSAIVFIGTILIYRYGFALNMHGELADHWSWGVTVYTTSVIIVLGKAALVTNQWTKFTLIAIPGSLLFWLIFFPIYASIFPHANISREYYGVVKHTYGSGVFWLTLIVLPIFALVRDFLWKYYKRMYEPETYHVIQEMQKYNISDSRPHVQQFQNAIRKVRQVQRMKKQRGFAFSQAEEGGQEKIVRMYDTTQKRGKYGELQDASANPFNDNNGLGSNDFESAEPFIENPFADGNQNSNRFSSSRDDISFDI
# B2: Phospholipid-transporting ATPase DRS2 (Saccharomyces cerevisiae), P39524 (parent)
# chain: B1 partner
# partner: B1 chain
# B3: Phospholipid-transporting ATPase accessory subunit CRF1 (Saccharomyces cerevisiae), P53740 (parent)
# chain: MGLILRWKEKKQLSSKQNAQKSRKPANTSFRQQRLKAWQPILSPQSVLPLLILMACVFAPIGIGLVVSTISVQRLVVNYTECDALAPAKHFETIPSEYVDYHFSKKVAVQPQWMVLTDPELGNQTCRIQFEVPNHIKKSTYVYYRLTNFNQNYREYVQSLDLDQLKGKALIGNDLDPNCDPLRTVENKTIFPCGLIANSMFNDTFGTTLTGVNDTADYLLTTKGIAWDTDSHRYGKTEYNASDIVPPPNWAKLFPNGYTDDNIPDLQNWEQFKIWMRTAALPNFYKLAMKNETNGLGKGIYIADIELNYPVRSFYGTKSFVLTTNSIIGAGNEALGIVYLIVAGIATLFAILFLIKVIFKPRPMHDHSYLNFENSDTPFDESSVVSIPLREIL
# B4: Phospholipid-transporting ATPase accessory subunit LEM3 (Saccharomyces cerevisiae), P42838 (parent)
# chain: MVNFDLGQVGEVFRRKDKGAIVSGDNPEEEEDVDASEFEEDEVKPVRTKNRRPKEDAFTQQRLAAINPVLTPRTVLPLYLLIAVVFVIVGGCILAQNSKVDEVTIYYQDCMTNATSSWSDIPSEHWQFVFHKYKTYNTAPQWRFVDDESDDFTKQRGTCQIRFTTPSDMKNNVYLNYVLEKFAANHRRYVLSFSEDQIRGEDASYETVHDATGINCKPLSKNADGKIYYPCGLIANSMFNDTFPLQLTNVGDTSNNYSLTNKGINWESDKKRYKKTKYNYTQIAPPPYWEKMYPDGYNETNIPDIQDWEEFQNWMRPGAFDKITKLIRINKNDTLPAGEYQLDIGLHWPVLEFNGKKGIYLTHGSHLGGRNPFLGIVYLIGGCICAAMALILLTFWLFGGRKIADASSLSWNMK
# Variants of: B1
# Conditions: with atc3_yeast DRS2, P39524
row,Variant,effect of a mutation on the interaction
1,C176A,decreasing interaction strength
2,C80A,disrupting interaction strength

# Next, values leading:
row,effect of a mutation on the interaction,Variant
1,decreasing interaction strength,C190A
2,disrupting interaction strength,C123A

# Variants of: B2
# Conditions: with cdc50_yeast CDC50, P25656
row,effect of a mutation on the interaction,Variant
1,with no effect,E342Q
2,disrupting interaction strength,D560N
3,disrupting interaction strength,G341L

# Variants of: B3
# Conditions: with atc8_yeast DNF3, Q12674
# atc8_yeast DNF3, Q12674, sequence (Q12674 whole entry): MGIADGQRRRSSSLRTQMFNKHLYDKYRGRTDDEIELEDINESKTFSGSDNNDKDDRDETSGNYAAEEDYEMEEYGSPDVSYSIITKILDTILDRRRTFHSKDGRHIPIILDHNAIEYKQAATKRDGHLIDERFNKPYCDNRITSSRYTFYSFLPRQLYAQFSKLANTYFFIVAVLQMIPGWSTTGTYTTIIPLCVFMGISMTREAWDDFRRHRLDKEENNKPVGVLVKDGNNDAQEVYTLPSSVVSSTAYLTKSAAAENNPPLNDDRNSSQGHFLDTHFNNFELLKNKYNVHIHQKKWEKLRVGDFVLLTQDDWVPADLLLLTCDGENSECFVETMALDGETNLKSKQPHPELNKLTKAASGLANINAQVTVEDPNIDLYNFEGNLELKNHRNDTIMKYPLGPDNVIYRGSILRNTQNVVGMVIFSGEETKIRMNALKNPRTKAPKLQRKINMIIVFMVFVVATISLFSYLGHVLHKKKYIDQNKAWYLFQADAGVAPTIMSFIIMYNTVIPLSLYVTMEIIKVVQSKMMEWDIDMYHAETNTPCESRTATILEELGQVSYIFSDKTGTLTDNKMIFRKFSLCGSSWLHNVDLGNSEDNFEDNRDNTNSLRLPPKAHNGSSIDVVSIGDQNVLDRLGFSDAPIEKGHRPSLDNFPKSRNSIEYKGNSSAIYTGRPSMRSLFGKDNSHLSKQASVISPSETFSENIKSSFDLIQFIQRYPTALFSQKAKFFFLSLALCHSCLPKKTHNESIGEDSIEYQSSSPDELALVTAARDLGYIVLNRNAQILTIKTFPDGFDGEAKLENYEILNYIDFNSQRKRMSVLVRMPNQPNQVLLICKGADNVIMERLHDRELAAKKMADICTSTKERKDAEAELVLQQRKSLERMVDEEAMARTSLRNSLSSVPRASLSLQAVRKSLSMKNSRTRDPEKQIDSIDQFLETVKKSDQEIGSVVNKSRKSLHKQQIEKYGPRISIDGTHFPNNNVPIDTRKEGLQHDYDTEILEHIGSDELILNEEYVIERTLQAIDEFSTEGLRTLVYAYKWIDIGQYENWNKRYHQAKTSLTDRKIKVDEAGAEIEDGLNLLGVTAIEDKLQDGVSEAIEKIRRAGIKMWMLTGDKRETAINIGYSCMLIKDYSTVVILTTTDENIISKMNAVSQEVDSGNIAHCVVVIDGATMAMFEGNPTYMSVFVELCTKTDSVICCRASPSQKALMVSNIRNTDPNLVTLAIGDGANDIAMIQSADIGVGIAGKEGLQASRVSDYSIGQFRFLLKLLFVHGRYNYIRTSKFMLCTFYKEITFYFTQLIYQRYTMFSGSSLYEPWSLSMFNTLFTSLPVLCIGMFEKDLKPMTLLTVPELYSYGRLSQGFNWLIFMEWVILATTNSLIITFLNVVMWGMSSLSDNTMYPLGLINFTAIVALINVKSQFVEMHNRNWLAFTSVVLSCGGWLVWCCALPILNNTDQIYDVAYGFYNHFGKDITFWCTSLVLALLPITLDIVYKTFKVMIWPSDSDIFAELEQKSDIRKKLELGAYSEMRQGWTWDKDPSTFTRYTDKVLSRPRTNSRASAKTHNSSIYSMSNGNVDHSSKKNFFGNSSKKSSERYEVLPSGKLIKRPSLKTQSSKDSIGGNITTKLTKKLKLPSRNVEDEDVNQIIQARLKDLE
row,effect of a mutation on the interaction,Variant
1,disrupting interaction strength,C82A
2,disrupting interaction strength,C126A
3,decreasing interaction strength,C193A
4,decreasing interaction strength,C179A

# Variants of: B4
# Conditions: with atc5_yeast DNF1, P32660
# atc5_yeast DNF1, P32660, sequence (P32660 whole entry): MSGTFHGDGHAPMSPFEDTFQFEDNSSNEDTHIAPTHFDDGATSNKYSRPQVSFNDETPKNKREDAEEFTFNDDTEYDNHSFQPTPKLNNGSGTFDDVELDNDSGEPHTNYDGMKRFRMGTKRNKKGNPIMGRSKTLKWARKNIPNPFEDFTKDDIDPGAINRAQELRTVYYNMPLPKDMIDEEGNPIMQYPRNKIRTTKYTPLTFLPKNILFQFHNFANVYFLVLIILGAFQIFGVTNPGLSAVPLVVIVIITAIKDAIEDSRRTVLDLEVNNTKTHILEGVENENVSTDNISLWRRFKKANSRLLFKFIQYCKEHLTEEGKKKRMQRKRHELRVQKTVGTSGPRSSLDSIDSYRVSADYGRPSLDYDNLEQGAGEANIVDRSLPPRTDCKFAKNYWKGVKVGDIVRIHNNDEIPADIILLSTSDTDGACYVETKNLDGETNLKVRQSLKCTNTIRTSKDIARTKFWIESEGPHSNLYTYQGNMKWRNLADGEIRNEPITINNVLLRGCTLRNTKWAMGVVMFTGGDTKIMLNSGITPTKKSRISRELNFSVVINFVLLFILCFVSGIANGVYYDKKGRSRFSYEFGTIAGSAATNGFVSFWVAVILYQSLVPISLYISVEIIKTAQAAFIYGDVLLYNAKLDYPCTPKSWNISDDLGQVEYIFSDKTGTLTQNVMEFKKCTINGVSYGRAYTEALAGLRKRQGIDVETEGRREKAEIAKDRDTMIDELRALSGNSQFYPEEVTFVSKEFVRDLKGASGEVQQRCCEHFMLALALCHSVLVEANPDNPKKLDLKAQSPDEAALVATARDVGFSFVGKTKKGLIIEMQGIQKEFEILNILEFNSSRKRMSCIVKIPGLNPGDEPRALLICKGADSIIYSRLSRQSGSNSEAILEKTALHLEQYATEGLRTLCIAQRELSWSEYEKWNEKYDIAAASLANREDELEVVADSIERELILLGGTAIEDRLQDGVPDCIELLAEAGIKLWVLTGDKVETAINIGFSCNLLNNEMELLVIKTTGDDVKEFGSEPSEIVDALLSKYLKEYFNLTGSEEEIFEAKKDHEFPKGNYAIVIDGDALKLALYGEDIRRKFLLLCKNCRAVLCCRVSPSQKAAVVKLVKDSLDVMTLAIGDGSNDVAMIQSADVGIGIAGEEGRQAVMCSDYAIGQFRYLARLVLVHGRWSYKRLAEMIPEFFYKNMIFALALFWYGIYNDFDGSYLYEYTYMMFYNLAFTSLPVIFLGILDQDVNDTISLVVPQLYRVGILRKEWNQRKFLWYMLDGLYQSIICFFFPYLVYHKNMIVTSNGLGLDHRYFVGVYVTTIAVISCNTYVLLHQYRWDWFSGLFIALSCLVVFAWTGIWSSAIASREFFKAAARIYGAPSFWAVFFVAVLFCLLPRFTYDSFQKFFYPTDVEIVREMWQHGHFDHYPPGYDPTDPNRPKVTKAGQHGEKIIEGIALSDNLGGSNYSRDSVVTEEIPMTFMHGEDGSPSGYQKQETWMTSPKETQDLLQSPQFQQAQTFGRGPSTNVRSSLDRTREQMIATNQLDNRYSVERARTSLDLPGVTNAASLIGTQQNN
row,Variant,effect of a mutation on the interaction
1,A83T,disrupting interaction strength
2,C159A,disrupting interaction strength
3,A404V,disrupting interaction strength
4,S237L,disrupting interaction strength
5,C110A,disrupting interaction strength

# Continued, values first:
row,effect of a mutation on the interaction,Variant
1,disrupting interaction strength,G375E
2,disrupting interaction strength,C216A
3,decreasing interaction strength,C231A

# Variants of: B4
# Conditions: with atc5_yeast DNF1, P32660
# Remark: another data set of the same source
row,effect of a mutation on the interaction,Variant
1,decreasing interaction strength,A65V
